Target: SARS-CoV-2 Wuhan RBD, de-glycosylated (SARS-CoV-2, UniProt P0DTC2)
Assay: crystal structure
Conditions: both partners purified

Binder | binding result
A8 monomer (VHH) VHH: QVQLVESGGGLVQAGGSLRLSCAASGGTFSTAAMGWFRQAPGEERECVASIGWRGVRTWYADSVKGRFTISRDNPQNTVYLQMNNLKSGDTAVYYCAASVGNYGLPWAHFEYDFWGQGIQVTVSS | binds
B5-5 monomer (VHH) VHH: QVQLVESGGGLVQPGGSLRLSCAVFGSTLDNYSVGWFRQLPGKEREGLACFSRRYGAPYYADSAKDRFTISRDNAKNTVDLQLNGLKPEDTAVYYCATRSGPYCTTSVSDFDDWGRGTQVTVSS | binds

Reference: publication PMC11285730 (Open Biology, 2024)
